T1: T cell receptor (TCR) Vγ9 (TRGV9) (human, UniProt Q99603 21-122)
T1 sequence (looked up): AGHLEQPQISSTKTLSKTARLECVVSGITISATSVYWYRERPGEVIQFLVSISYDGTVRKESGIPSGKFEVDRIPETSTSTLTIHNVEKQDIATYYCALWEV

T2: TCR gamma/delta constant region (TRGDC) (human, UniProt P0CF51 1-173; B7Z8K6 1-153)
T2 chain (looked up) 1: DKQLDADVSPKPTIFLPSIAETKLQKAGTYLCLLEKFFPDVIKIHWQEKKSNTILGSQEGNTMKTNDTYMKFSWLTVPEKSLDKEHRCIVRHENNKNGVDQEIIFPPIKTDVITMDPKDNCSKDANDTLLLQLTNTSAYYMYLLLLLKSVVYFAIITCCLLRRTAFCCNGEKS
T2 chain (looked up) 2: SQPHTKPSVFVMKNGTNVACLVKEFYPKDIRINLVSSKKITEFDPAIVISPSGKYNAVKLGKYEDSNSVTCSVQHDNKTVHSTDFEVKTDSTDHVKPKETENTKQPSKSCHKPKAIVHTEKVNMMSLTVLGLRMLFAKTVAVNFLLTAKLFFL


What follows are binders tested against T1, T cell receptor (TCR) Vγ9 (TRGV9) (assay: cell-based or functional assay).
Wherever CD25+ (Vg9+ cells), flow staining is given: test concentration or dose not given here.
Wherever CD71+ (Vg9+ cells), flow staining is given: test concentration or dose not given here.
Wherever Granzyme B, Luminex (supernatant) is given: unit not given here.
Wherever IL6, Luminex (supernatant) is given: unit not given here.
Wherever TNFα, Luminex (supernatant) is given: unit not given here.

Binder	CD25+ (Vg9+ cells), flow staining [%]	CD71+ (Vg9+ cells), flow staining [%]	Granzyme B, Luminex (supernatant)	IFNγ, Luminex (supernatant)	IL6, Luminex (supernatant)	TNFα, Luminex (supernatant)	Vg9 T cell %, flow staining [%]
VG9B140 (antibody, human IgG1, kappa, V domains shown) VH: EVQLVESGGGLVKPGGSLRLSCAGSGFTFRSYDMNWVRQAPGKGLEWVSSISTSSGYIYYADSVKGRFTISRDNAKNSLSLQMNSLRAEDTAVFYCARDRGIAVAGDYYYGMDVWGQGTMVTVSS VL: not shown	20.4	70.6	2160	796	602	3520	3.9
VG9B46 (antibody, human IgG1, kappa, V domains shown) VH: EVQLVESGGGLVKPGGSLRLSCEASGFTFSINSMNWVRQAPGKGLEWVSSISSTSDYIFNADSVKGRFTISRDNAKNSLYLQMNSLRAEDTAVYYCVRDDVFGAFDIWGQGTMVTVSS VL: EIVLTQSPGTLSLSPGERATLSCRTSQSVSRSYLGWYQQKPGQPPRLLIFGSSSRATGIPDRFSGSGSGTDFTLTISRLEPEDFAVYYCQQYSRSPLTFGGGTKVDIKR	37.9	95.8	3170	1150	375	5260	4.4

Now from value to binder:

CD25+ (Vg9+ cells), flow staining [%]	CD71+ (Vg9+ cells), flow staining [%]	Granzyme B, Luminex (supernatant)	IFNγ, Luminex (supernatant)	IL6, Luminex (supernatant)	TNFα, Luminex (supernatant)	Vg9 T cell %, flow staining [%]	Binder
24.8	88.1	1490	476	219	186	4	VG9B414 (antibody, human IgG1, kappa) heavy: not shown light: EIVMTQSPSSVSASVGDRVTITCRASQGINSWLAWYQQKPGNAPKLLIYAASSLQSGVPSRFSGIGSGTDFIFTISSLQPEDFASYYCQQANSFPWTFGQGTRLEIKRTVAAPSVFIFPPSDEQLKSGTASVVCLLNNFYPREAKVQWKVDNALQSGNSQESVTEQDSKDSTYSLSSTLTLSKADYEKHKVYACEVTHQGLSSPVTKSFNRGEC
46.4	98.8	3390	1180	225	87	13.9	VG9B416 (antibody, human IgG1, kappa) heavy: not shown light: EIVLTQSPGTLSLSPGDRATLSCRASQSVASSYLAWYQQKPGQSPRLLIYGASSRATGIPDRFSGSGSGTDFTLTISRLEPEDFAVYYCQQYGSSPPYTFGQGTKLEIKRTVAAPSVFIFPPSDEQLKSGTASVVCLLNNFYPREAKVQWKVDNALQSGNSQESVTEQDSKDSTYSLSSTLTLSKADYEKHKVYACEVTHQGLSSPVTKSFNRGEC
15.8	86.9	1060	303	166	61	3.7	VG9B195 (antibody, human IgG1, lambda, V domains shown) VH: EVQLVESGGGLVKPGGSLRLSCAASGFTFSPYTMNWVRQAPGKGLEWVSSISSSSSYMYYADSVKGRFTISRDNAKNSLYLQMNSLRAEDTAVYYCARDGDLVGPTYYFDYWGQGTLVTVSS VL: SYELMQPPSVSVSPGQTASITCSGDKLGDKYACWYQQKPGQSPVLVIYQHNKRPSGIPERFSGSNSGKTATLTISGTQAMDEADYYCQAWDSTTVVFGGGTKLTVLG

Molecular target: T2, TCR gamma/delta constant region (TRGDC)
Experiment: cell-based or functional assay

Binder	CD25+ (Vg9+ cells), flow staining [%]	CD71+ (Vg9+ cells), flow staining [%]	Granzyme B; Luninex (supernatant)	IFNγ; Luninex (supernatant)	IL6; Luninex (supernatant)	TNFα; Luninex (supernatant)	Vg9 T cell %, flow staining [%]
VG9B125 (antibody, human IgG1, kappa, V domains shown) VH: EVQLVESGGTLVQPGGSLRLSCAVSGFTFSSYDMNWVRQAPGKGLEWVSYISSSSTAKYYADSVKGRFTISRDNAKNSLYLQMNSLWDEDTAVYYCAREDIVVVTPILQHWGQGTTVTVSS VL: EIVMTQSPATLSLSPGERAILSCRASQSVSKDLAWYQQKPGQAPRLLIYDASNRATGIPARISGSGSGTDFTLTISSLEPEDFAVYYCQQRINWPLFTFGPGTKVEIKR	24.8	70.8	3760	1490	587	959	12.4
VG9B136 (antibody, human IgG1, kappa, V domains shown) VH: QVQLQQSGPGLVKPSQTLSLTCAISGDSVSSNRAAWNWIRQSPSKGLEWLGRTYYRSKWYNEYAASVKSRMSINPDTSKNQFSLQLNSVTPEDTALYYCARDLWELREACDIWGQGTMVTVSS VL: DIVMTQSPSFLSTFVGDRVTITCRASQGISSYLAWYQQKPGKVPKLLIYVASTLQSGVPSRFSGSGSGTEFTLTISSLQPEDFATYYCQQLNSYPFTFGPGTKVDIKR	33.3	94.9	1540	560	279	192	5.7
VG9B112 (antibody, human IgG1, kappa, V domains shown) VH: QVQLQQSGPGLVKPSQTLSLTCAISGDSVSSNSAAWNWIRQSPSRGLEWLGGTYYRSKWFNNYAVSVKSRITINPDTSTNQFSLQLNSVTPADTAVYYCARGEWGLRDAFDIWGQGTMVTVSS VL: DIQMTQSPSFLSASVGDRVIITCRASQGIHSYLAWYQQKPGKVPKLLIYVASTLQSGVPSRFSGSGSGTEFTLTISSLQPEDFATYYCQQLNSYPWTFGQGTKLEIKR	23.4	91.8	1140	461	256	1260	7.9

Other lines, results leading:

CD25+ (Vg9+ cells), flow staining [%]	CD71+ (Vg9+ cells), flow staining [%]	Granzyme B; Luninex (supernatant)	IFNγ; Luninex (supernatant)	IL6; Luninex (supernatant)	TNFα; Luninex (supernatant)	Vg9 T cell %, flow staining [%]	Binder
29.7	97	2960	846	228	89	8.5	VG9B386 (antibody, human IgG1, kappa, V domains shown) VH: EVQLVESGGGLVKPGGSLRLSCAASGFTFSSYSMIWVRQAPGKGLEWVSSIGSSSTYIYYADSVRGRFTISRDNAKTSLYLQMNSLRAEDTAMYFCARDGETGGFDYWGQGILVTVSS VL: EIVMTQSPGTLSLSPGERATLSCRASQSISRSYLAWYQQKPGQPPRLLIYGPSNRATGIPDRFSASGSGTDFTLTNSRLEPEDFAVYYCQQYGSLPLTFGGGTKVEIKR
27.1	92.4	2630	1460	4900	138	6.1	VG9B369 (antibody, human IgG1, kappa, V domains shown) VH: EVQLLESGPTLVKPTQTLTLTCTFSGFSLSTIGVGVGWIRQPPGKALEWLSLIYWNDDKRYNPSLKSRLTITKDTSKNQVVLTMTNMDPVDTATYYCAHSHDWVHAFDIWGQGTMVTVSS VL: DIVMTQSPSSLSASVGDRVTITCQASQDISHYLNWYQQKPGKAPKFLIYDASNLDTGVPSRFSGSGSGTDFTFTISSLQPEDIATYYCQQYDNFPLTFGGGTKVEIKR
20.6	89.6	1760	352	123	215	3.8	VG9B144 (antibody, human IgG1, lambda, V domains shown) VH: QVQLVQSGAEVKKPGASVKVSCKASGYTFTGYYMHWMRQAPGQGLEWMGWINPNSGATNKEQKFQGRVTMTRDTSISTAYMELSRLRSDDTAVYYCAREDDAFDVWGQGTMVTVSS VL: SSELTQDPAVSVALGQTVRITCQGDNLRNYYATWFQQKPGQAPVLVFFGKNNRPSGIPDRFSGSSSGDTASLTITGAQAEDEADYYCNSRDSSGNHVVFGGGTKLTVLG
24.7	89.7	1470	746	5200	135	5.5	VG9B387 (antibody, human IgG1, lambda, V domains shown) VH: EVQLVESGAEVKKPGASVKVSCKASGFTFTGYYLQWVRQAPGQGLEWMGWINPNSGYTDYAQRFQDRVTMTRDTSINTAYMELSRLRSDDTAVYYCARLDDAFDVWGQGTMVTVSS VL: SYELTQDPAVSVALGQTVRITCQGDSLRNYYAIWYQQKPGQAPVLVIFGKNNRPSGIPDRFSGSSSGTTASLTITGTQAEDEADYYCNSRDSSGNHWVFGGGTKLTVLG
36.5	98.2	4390	2120	590	158	12.3	VG9B410 (antibody, human IgG1, kappa) heavy: not shown light: DIQMTQSPSSVSASVGDRVTITCRASQGINSWLAWYQQKPGNAPKLLIYAASSLQSGVPSRFSGIGSGTDFIFTISSLQPEDFASYYCQQANSFPWTFGQGTKVEIKRTVAAPSVFIFPPSDEQLKSGTASVVCLLNNFYPREAKVQWKVDNALQSGNSQESVTEQDSKDSTYSLSSTLTLSKADYEKHKVYACEVTHQGLSSPVTKSFNRGEC

Reference: patent US20220125947A1 (published 2022)
